pKd: −log10 of the molar value.
Assays:
Scl 70 autoantigen [1] = test: Athena assay, mAb 50 ug/ml; positive >50
Histone autoantigen [2] = test: Athena assay, mAb 50 ug/ml; positive >50
centromere B autoantigen [3] = test: Athena assay, mAb 50 ug/ml; positive >50
SSB autoantigen [4] = test: Athena assay, mAb 50 ug/ml; positive >50
SSA autoantigen [5] = test: Athena assay, mAb 50 ug/ml; positive >50
RNP autoantigen [6] = test: Athena assay, mAb 50 ug/ml; positive >50
Jo 1 autoantigen [7] = test: Athena assay, mAb 50 ug/ml; positive >50
Sm autoantigen [8] = test: Athena assay, mAb 50 ug/ml; positive >50
Scl 70 autoantigen [9] = test: Athena assay, mAb 6.25 ug/ml; positive >50
Histone autoantigen [10] = test: Athena assay, mAb 6.25 ug/ml; positive >50
centromere B autoantigen [11] = test: Athena assay, mAb 6.25 ug/ml; positive >50
SSB autoantigen [12] = test: Athena assay, mAb 6.25 ug/ml; positive >50
SSA autoantigen [13] = test: Athena assay, mAb 6.25 ug/ml; positive >50
RNP autoantigen [14] = test: Athena assay, mAb 6.25 ug/ml; positive >50
Jo 1 autoantigen [15] = test: Athena assay, mAb 6.25 ug/ml; positive >50
Sm autoantigen [16] = test: Athena assay, mAb 6.25 ug/ml; positive >50
Scl 70 autoantigen [17] = test: Athena assay, mAb 25 ug/ml; positive >50
Histone autoantigen [18] = test: Athena assay, mAb 25 ug/ml; positive >50
centromere B autoantigen [19] = test: Athena assay, mAb 25 ug/ml; positive >50
SSB autoantigen [20] = test: Athena assay, mAb 25 ug/ml; positive >50
SSA autoantigen [21] = test: Athena assay, mAb 25 ug/ml; positive >50
RNP autoantigen [22] = test: Athena assay, mAb 25 ug/ml; positive >50
Jo 1 autoantigen [23] = test: Athena assay, mAb 25 ug/ml; positive >50
Sm autoantigen [24] = test: Athena assay, mAb 25 ug/ml; positive >50
[25] = biological target: Env of HIV-1 7165.18.N160K (HIV-1); test: cell-based or functional assay
[26] = biological target: Env of HIV-1 clade B isolate 7165.18 (HIV-1); test: cell-based or functional assay
[27] = biological target: Env of HIV-1 JRCSF.N160K (HIV-1) (UniProt P20871); test: cell-based or functional assay
[28] = biological target: Env of HIV-1 Q23.17.N160K (HIV-1); test: cell-based or functional assay
[29] = biological target: Env of HIV-1 JRFL.E168K (HIV-1); test: cell-based or functional assay
[30] = biological target: Env of HIV-1 clade B isolate JR-CSF (HIV-1) (UniProt P20871); test: cell-based or functional assay
[31] = biological target: Env of HIV-1 clade B isolate JRFL (virus) (HIV-1); test: cell-based or functional assay
[32] = biological target: Env of HIV-1 JRFL.N160K.E168K (HIV-1); test: cell-based or functional assay
[33] = biological target: Env of HIV-1 clade A isolate Q23.17 (HIV-1); test: cell-based or functional assay
[34] = biological target: A244gD+ gp120 (herpes simplex virus; HIV-1); test: SPR
[35] = biological target: HV00043 (63521 TC21 140C) (HIV-1); test: SPR
[36] = biological target: HV00044 (6240 TZ5 140C) (HIV-1); test: SPR
[37] = biological target: Influenza HA (Wisconsin) (influenza virus); test: Luminex assay, antibody 50 µg/ml
HCV E2 (HCV) = test: Luminex assay, antibody 50 µg/ml
Scl 70 autoantigen [38] = test: Athena assay, mAb 12.5 ug/ml; positive >50
Histone autoantigen [39] = test: Athena assay, mAb 12.5 ug/ml; positive >50
centromere B autoantigen [40] = test: Athena assay, mAb 12.5 ug/ml; positive >50
SSB autoantigen [41] = test: Athena assay, mAb 12.5 ug/ml; positive >50
SSA autoantigen [42] = test: Athena assay, mAb 12.5 ug/ml; positive >50
RNP autoantigen [43] = test: Athena assay, mAb 12.5 ug/ml; positive >50
Jo 1 autoantigen [44] = test: Athena assay, mAb 12.5 ug/ml; positive >50
Sm autoantigen [45] = test: Athena assay, mAb 12.5 ug/ml; positive >50
[46] = biological target: gp120 (Table 2, strain not given) (HIV-1); test: Luminex bead assay
A244 gD- gp120 (HIV-1) = test: SPR

Substance: PG9 (antibody)
- Autoreactivity (Athena) (Scl 70 autoantigen [1]): 2
- Autoreactivity (Athena) (Histone autoantigen [2]): 7
- Autoreactivity (Athena) (centromere B autoantigen [3]): 5
- Autoreactivity (Athena) (SSB autoantigen [4]): 5
- Autoreactivity (Athena) (SSA autoantigen [5]): 5
- Autoreactivity (Athena) (RNP autoantigen [6]): 3
- Autoreactivity (Athena) (Jo 1 autoantigen [7]): 1
- Autoreactivity (Athena) (Sm autoantigen [8]): 2
- Autoreactivity (Athena) (Scl 70 autoantigen [9]): 2
- Autoreactivity (Athena) (Histone autoantigen [10]): 5
- Autoreactivity (Athena) (centromere B autoantigen [11]): 4
- Autoreactivity (Athena) (SSB autoantigen [12]): 4
- Autoreactivity (Athena) (SSA autoantigen [13]): 4
- Autoreactivity (Athena) (RNP autoantigen [14]): 3
- Autoreactivity (Athena) (Jo 1 autoantigen [15]): 2
- Autoreactivity (Athena) (Sm autoantigen [16]): 2
- Autoreactivity (Athena) (Scl 70 autoantigen [17]): 1
- Autoreactivity (Athena) (Histone autoantigen [18]): 9
- Autoreactivity (Athena) (centromere B autoantigen [19]): 5
- Autoreactivity (Athena) (SSB autoantigen [20]): 6
- Autoreactivity (Athena) (SSA autoantigen [21]): 5
- Autoreactivity (Athena) (RNP autoantigen [22]): 2
- Autoreactivity (Athena) (Jo 1 autoantigen [23]): 2
- Autoreactivity (Athena) (Sm autoantigen [24]): 3
- IC50 ug/ml (virus neutralization) [25]: > 50 µg/mL
- IC80 ug/ml (virus neutralization) [25]: > 50 µg/mL
- IC50 ug/ml (virus neutralization) [26]: > 50 µg/mL
- IC80 ug/ml (virus neutralization) [26]: > 50 µg/mL
- IC50 ug/ml (virus neutralization) [27]: > 50 µg/mL
- IC80 ug/ml (virus neutralization) [27]: > 50 µg/mL
- IC50 ug/ml (virus neutralization) [28]: > 50 µg/mL
- IC80 ug/ml (virus neutralization) [28]: > 50 µg/mL
- IC50 ug/ml (virus neutralization) [29]: 0.008 µg/mL
- IC80 ug/ml (virus neutralization) [29]: 0.055 µg/mL
- IC50 ug/ml (virus neutralization) [30]: 0.003 µg/mL
- IC80 ug/ml (virus neutralization) [30]: 0.008 µg/mL
- IC50 ug/ml (virus neutralization) [31]: > 50 µg/mL
- IC80 ug/ml (virus neutralization) [31]: > 50 µg/mL
- IC50 ug/ml (virus neutralization) [32]: > 50 µg/mL
- IC80 ug/ml (virus neutralization) [32]: > 50 µg/mL
- IC50 ug/ml (virus neutralization) [33]: 0.002 µg/mL
- IC80 ug/ml (virus neutralization) [33]: 0.005 µg/mL
- pKd [34]: 8.32
- pKd [35]: 9.12
- pKd [36]: 6.68
- background substracted RFUs [37]: 0 RFU
- background substracted RFUs (HCV E2 (HCV)): 0 RFU
- Autoreactivity (Athena) (Scl 70 autoantigen [38]): 2
- Autoreactivity (Athena) (Histone autoantigen [39]): 6
- Autoreactivity (Athena) (centromere B autoantigen [40]): 4
- Autoreactivity (Athena) (SSB autoantigen [41]): 4
- Autoreactivity (Athena) (SSA autoantigen [42]): 5
- Autoreactivity (Athena) (RNP autoantigen [43]): 2
- Autoreactivity (Athena) (Jo 1 autoantigen [44]): 2
- Autoreactivity (Athena) (Sm autoantigen [45]): 3

Substance: 1b12 original (antibody)
- Reactivity in Luminex Units (Luminex Units) [46]: 5110

Substance: CH03 (antibody)
- Autoreactivity (Athena) (Scl 70 autoantigen [1]): 12
- Autoreactivity (Athena) (Histone autoantigen [2]): 844
- Autoreactivity (Athena) (centromere B autoantigen [3]): 98
- Autoreactivity (Athena) (SSB autoantigen [4]): 7
- Autoreactivity (Athena) (SSA autoantigen [5]): 9
- Autoreactivity (Athena) (RNP autoantigen [6]): 132
- Autoreactivity (Athena) (Jo 1 autoantigen [7]): 5
- Autoreactivity (Athena) (Sm autoantigen [8]): 24
- Autoreactivity (Athena) (Scl 70 autoantigen [9]): 4
- Autoreactivity (Athena) (Histone autoantigen [10]): 231
- Autoreactivity (Athena) (centromere B autoantigen [11]): 19
- Autoreactivity (Athena) (SSB autoantigen [12]): 5
- Autoreactivity (Athena) (SSA autoantigen [13]): 5
- Autoreactivity (Athena) (RNP autoantigen [14]): 51
- Autoreactivity (Athena) (Jo 1 autoantigen [15]): 3
- Autoreactivity (Athena) (Sm autoantigen [16]): 7
- Autoreactivity (Athena) (Scl 70 autoantigen [17]): 7
- Autoreactivity (Athena) (Histone autoantigen [18]): 386
- Autoreactivity (Athena) (centromere B autoantigen [19]): 34
- Autoreactivity (Athena) (SSB autoantigen [20]): 4
- Autoreactivity (Athena) (SSA autoantigen [21]): 6
- Autoreactivity (Athena) (RNP autoantigen [22]): 70
- Autoreactivity (Athena) (Jo 1 autoantigen [23]): 4
- Autoreactivity (Athena) (Sm autoantigen [24]): 10
- pKd [34]: 7.81
- pKd [36]: 5.97
- pKd (A244 gD- gp120 (HIV-1)): 6.14
- background substracted RFUs [37]: 1 RFU
- background substracted RFUs (HCV E2 (HCV)): 2910 RFU
- Autoreactivity (Athena) (Scl 70 autoantigen [38]): 8
- Autoreactivity (Athena) (Histone autoantigen [39]): 359
- Autoreactivity (Athena) (centromere B autoantigen [40]): 30
- Autoreactivity (Athena) (SSB autoantigen [41]): 6
- Autoreactivity (Athena) (SSA autoantigen [42]): 6
- Autoreactivity (Athena) (RNP autoantigen [43]): 74
- Autoreactivity (Athena) (Jo 1 autoantigen [44]): 4
- Autoreactivity (Athena) (Sm autoantigen [45]): 9
